Results published in US20240350546A1 (TEXAS A AND M UNIVERSITY SYSTEM, published 2024).

Target: T1, CD26 on Rv-CD26-transduced Jurkat T cells (human, UniProt P27487 1-766)
T1 construct: whole, on cells; also called membrane CD26
Assay: ADA membrane binding efficiency from ADA activity left in medium after 24 h co-culture; Rv-ADA-CD3-293T/CD26-Jurkat T as maximum, 293T/Jurkat T without CD26 as background
Method: Next, we investigated the binding efficacy of ADA-CD3 on T cells. Jurkat-Dual (NF-KB &IRF/IFN), Jurkat-Dual transduced with Rv-CD26 (Jurkat-Dual-CD26), Jurkat-NFAT or Jurkat-NFAT transduced with Rv-CD26 (Jurkat-NFAT-CD26) reporter cell lines were co-cultured with Rv-ADA or Rv-ADA-CD3 (scFv) transduced 293 T cells for 24 hours. The cell culture medium was then used to measure ADA by ADA activity assay. ADA membrane binding efficiency was calculated using Rv-ADA-CD3-293T/CD26-Jurkat T as maximum and 293T/JurkatT W/O CD26 as background.

T1 sequence (P27487 whole entry): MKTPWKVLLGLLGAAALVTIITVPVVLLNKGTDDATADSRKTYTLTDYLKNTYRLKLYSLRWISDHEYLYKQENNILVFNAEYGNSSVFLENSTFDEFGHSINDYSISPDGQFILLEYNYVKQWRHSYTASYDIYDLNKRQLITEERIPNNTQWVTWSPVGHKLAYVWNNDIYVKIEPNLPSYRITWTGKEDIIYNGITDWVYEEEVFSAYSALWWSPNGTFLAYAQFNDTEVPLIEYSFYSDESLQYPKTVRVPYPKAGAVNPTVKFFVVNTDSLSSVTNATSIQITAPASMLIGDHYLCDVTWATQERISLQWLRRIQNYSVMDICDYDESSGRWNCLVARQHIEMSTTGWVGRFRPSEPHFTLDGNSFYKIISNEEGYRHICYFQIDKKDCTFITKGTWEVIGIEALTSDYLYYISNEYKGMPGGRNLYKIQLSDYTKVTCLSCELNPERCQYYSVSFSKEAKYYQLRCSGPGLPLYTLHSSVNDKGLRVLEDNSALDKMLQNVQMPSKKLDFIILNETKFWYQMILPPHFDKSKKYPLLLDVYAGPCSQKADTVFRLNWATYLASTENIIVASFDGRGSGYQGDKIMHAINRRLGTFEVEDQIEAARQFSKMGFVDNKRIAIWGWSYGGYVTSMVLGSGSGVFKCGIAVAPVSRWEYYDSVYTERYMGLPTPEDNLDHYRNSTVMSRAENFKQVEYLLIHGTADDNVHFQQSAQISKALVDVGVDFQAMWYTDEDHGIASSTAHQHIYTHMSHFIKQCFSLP

B1: secreted ADA (without CD3-scFv) (enzyme, human, UniProt P00813 1-363, looked up)
chain: MAQTPAFDKPKVELHVHLDGSIKPETILYYGRRRGIALPANTAEGLLNVIGMDKPLTLPDFLAKFDYYMPAIAGCREAIKRIAYEFVEMKAKEGVVYVEVRYSPHLLANSKVEPIPWNQAEGDLTPDEVVALVGQGLQEGERDFGVKARSILCCMRHQPNWSPKVVELCKKYQQQTVVAIDLAGDETIPGSSLLPGHVQAYQEAVKSGIHRTVHAGEVGSAEVVKEAVDILKTERLGHGYHTLEDQALYNRLRQENMHFEICPWSSYLTGAWKPDTEHAVIRLKNDQANYSLNTDDPLIFKSTLDTDYQMTKRDMGFTEEEFKRLNINAAKSSFLPEDEKRELLDLLYKAYGMPPSASAGQNL
notes: Secreted by Rv-ADA transduced 293 T cells in co-culture; also called ADA1; Rv-ADA
Question: B1 was tested. Which “ADA membrane binding efficiency (relative to secreted ADA-CD3)” value did it give?
Answer: Its value is 40%.
